Results from patent US20160084841A1, “Method for Predicting Clinical Effect of Immunotherapy” (INTERNATIONAL INSTITUTE OF CANCER IMMUNOLOGY, INC., priority 2013, published 2016).

Experiments:
[1] = tested on: anti-WT1235 peptide IgG antibody; assay: ELISA using variant WT1 antigen peptide as immobilized antigen to assay anti-WT1235 peptide IgG antibody; assay type: binding, human; conditions: serum of thymic carcinoma patient given WT1235 peptide; increase in titer detected; FIG. 19
Description: WK235-243 (SEQ ID NO: 62) and WT237-243 (SEQ ID NO: 63) were synthesized by GL Biochem (Shanghai) Corporation Ltd. WT1-frg2 (SEQ ID NO: 61) was prepared in the same way as in the aforementioned WT1-frg3 (SEQ ID NO: 57).
The measurement of the antibody titer using WT1-frg2 (SEQ ID NO: 61) was performed in the same way as in the aforementioned WT1-frg3 (SEQ ID NO: 57). The measurement of the antibody titer using WK235-243 (SEQ ID NO: 62) or WT237-243 (SEQ ID NO: 63) was performed in the same way as in the aforementioned WT332-347 (SEQ ID NO: 58), etc.

[2] = tested on: anti-WT1126 peptide IgG antibody; assay: ELISA using variant WT1 antigen peptide as immobilized antigen to assay anti-WT1126 peptide IgG antibody; assay type: binding, human; conditions: serum of pancreatic cancer patient given WT1126 peptide; increase in titer detected; FIG. 20
Description: WT126-134 (SEQ ID NO: 65), WK126-134 (SEQ ID NO: 66), WT128-134 (SEQ ID NO: 67), WT126-132 (SEQ ID NO: 68), WT129-134 (SEQ ID NO: 69), WT126-131 (SEQ ID NO: 70), and WT126-130 (SEQ ID NO: 71) were synthesized by GL Biochem (Shanghai) Corporation Ltd. WT1-frg1 (SEQ ID NO: 64) was prepared in the same way as in the aforementioned WT1-frg3 (SEQ ID NO: 57).
The measurement of the antibody titer using WT1-frg1 (SEQ ID NO: 64) was performed in the same way as in the aforementioned WT1-frg3 (SEQ ID NO: 57). The measurement of the antibody titer using WT126-134 (SEQ ID NO: 65), WK126-134 (SEQ ID NO: 66), WT128-134 (SEQ ID NO: 67), WT126-132 (SEQ ID NO: 68), WT129-134 (SEQ ID NO: 69), WT126-131 (SEQ ID NO: 70), or WT126-130 (SEQ ID NO: 71) was performed in the same way as in the aforementioned WT332-347 (SEQ ID NO: 58), etc.

B1: WT1-frg2: long chain peptide (145 aa, SEQ ID NO: 61) containing the whole length (Y2M) of the administered WT1235 peptide (protein)
chain: DPMGQQGSLGEQQYSVPPPVYGCHTPTDSCTGSQALLLRTPYSSDNLYQMTSQLECMTWNQMNLGATLKGVAAGSSSSVKWTEGQSNHSTGYESDNHTTPILCGAQYRIHTHGVFRGIQDVRRVPGVAPTLVRSASETSEKRPFM
B1 was tested, and the “ability as ELISA antigen to measure anti-WT1235 IgG antibody level in patient's serum” value [1] was “could measure an anti-WT1235 IgG antibody level in patient's serum”.

B2: WT1-frg1: long-chain peptide (182 aa, SEQ ID NO: 64) containing the whole length of the administered WT1126 peptide (protein)
chain: MGSDVRDLNALLPAVPSLGGGGGCALPVSGAAQWAPVLDFAPPGASAYGSLGGPAPPPAPPPPPPPPPHSFIKQEPSWGGAEPHEEQCLSAFTVHFSGQFTGTAGACRYGPFGPPPPSQASSGQARMFPNAPYLPSCLESQPAIRNQGYSTVTFDGTPSYGHTPSHHAAQFPNHSFKHEDPM
With B2 the “ability as ELISA antigen to measure anti-WT1126 IgG antibody level in patient's serum” value [2] was “could measure an anti-WT1126 IgG antibody level in patient's serum”.
